From patent US9914781 (GlaxoSmithKline, dated 2018)

Key:
[1] = molecular target: T1, pan-neurotrophin receptor p75^NTR (UniProt P08138 29-427, limits assumed); assay: cell based binding assay
T1 construct: whole, on cells
T1 sequence (looked up): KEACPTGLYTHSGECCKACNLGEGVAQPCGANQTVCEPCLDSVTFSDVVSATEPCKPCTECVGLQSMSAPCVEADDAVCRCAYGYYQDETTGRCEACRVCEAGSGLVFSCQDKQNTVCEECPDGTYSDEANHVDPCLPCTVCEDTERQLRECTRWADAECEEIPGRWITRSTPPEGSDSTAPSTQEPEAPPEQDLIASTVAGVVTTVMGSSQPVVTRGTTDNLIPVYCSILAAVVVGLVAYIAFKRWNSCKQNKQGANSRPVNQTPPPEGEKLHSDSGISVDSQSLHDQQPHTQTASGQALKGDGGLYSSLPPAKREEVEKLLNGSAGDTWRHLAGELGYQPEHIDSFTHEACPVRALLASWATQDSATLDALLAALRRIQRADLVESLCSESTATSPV

[2] = molecular target: T2, human full-length TrkB receptor (human, UniProt Q16620 32-822); assay: cell-based or functional assay
[3] = molecular target: T2, human full-length TrkB receptor; assay: cell-based or functional assay; remark: listed apart in the source
[4] = molecular target: T2, human full-length TrkB receptor; assay: cell-based or functional assay; remark: listed apart in the source
[5] = molecular target: TrkB D1-D3 domain variant (C32-L196) (human, UniProt Q16620 32-196); assay: SPR with TrkB domain deletion variants
[6] = molecular target: T3, recombinant human TrkB extracellular domain (FLAG tag-GSA-C32-H430-His5) (human, UniProt Q16620 31-430); assay: SPR, human TrkB-ECD
T3 construct: Single alanine mutants were made in this ECD; also called TrkB-ECD; TrkB ECD; not shown: FLAG tag

rat TrkB receptor = molecular target: T4, rat TrkB receptor (rat, UniProt Q63604 32-821); assay: recombinant TrkB in a heterologous cell line, primary cells or human iPSC derived cells
T4 construct: whole, on cells; also called rodent TrkB

murine TrkB receptor = molecular target: T5, murine TrkB receptor (murine, UniProt P15209 32-821); assay: as above
T5 construct: whole, on cells; also called mouse TrkB; rodent TrkB

[7] = molecular target: T3, recombinant human TrkB extracellular …; assay: SPR, 1:1 binding mode, recombinant human TrkB-ECD
[8] = molecular target: T6, recombinant cynomolgus TrkB-ECD (cynomolgus, UniProt A0A2K5VS06 32-430); assay: SPR, 1:1 binding mode, recombinant cynomolgus TrkB-ECD
T6 construct: extracellular domain

human FcRn = human FcRn (human, UniProt P55899 24-297; P61769 21-119, limits assumed); assay: SPR
TrkB_H284-H430 ECD-6H = molecular target: T7, TrkB_H284-H430 ECD-6H (human, UniProt Q16620 284-430); assay: SEC-MALS
T7 construct: the SEC-MALS construct is named only by its residue limits and tag; also called soluble truncated form of the ECD of TrkB
T7 sequence (Q16620 other isoform, or with tags, fused parts or gaps limits assumed): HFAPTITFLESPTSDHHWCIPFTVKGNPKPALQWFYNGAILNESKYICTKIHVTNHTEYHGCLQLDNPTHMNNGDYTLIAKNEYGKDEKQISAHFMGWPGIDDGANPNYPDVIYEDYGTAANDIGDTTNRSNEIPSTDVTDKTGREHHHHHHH

T2 sequence (Q16620 32-822 limits assumed): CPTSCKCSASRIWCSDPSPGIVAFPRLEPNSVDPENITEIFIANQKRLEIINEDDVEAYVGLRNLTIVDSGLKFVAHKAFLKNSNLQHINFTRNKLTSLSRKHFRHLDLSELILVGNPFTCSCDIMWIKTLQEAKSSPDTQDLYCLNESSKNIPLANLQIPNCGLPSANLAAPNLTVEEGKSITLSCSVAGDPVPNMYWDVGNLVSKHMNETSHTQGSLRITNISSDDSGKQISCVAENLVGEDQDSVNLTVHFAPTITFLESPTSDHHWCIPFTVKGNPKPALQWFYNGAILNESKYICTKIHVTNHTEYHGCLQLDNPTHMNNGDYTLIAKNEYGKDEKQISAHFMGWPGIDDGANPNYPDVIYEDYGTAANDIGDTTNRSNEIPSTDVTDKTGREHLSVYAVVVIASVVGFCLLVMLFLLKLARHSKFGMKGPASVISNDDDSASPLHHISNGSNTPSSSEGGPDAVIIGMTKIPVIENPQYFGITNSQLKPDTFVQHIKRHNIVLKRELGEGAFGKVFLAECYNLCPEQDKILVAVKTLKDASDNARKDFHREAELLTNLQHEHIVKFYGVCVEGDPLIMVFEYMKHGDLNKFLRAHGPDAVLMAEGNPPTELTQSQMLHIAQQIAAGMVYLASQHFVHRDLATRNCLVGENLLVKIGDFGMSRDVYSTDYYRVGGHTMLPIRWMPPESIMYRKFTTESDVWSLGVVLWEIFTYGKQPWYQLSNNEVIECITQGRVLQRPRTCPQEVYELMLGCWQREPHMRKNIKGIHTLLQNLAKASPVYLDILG
T3 sequence (Q16620 other isoform, or with tags, fused parts or gaps): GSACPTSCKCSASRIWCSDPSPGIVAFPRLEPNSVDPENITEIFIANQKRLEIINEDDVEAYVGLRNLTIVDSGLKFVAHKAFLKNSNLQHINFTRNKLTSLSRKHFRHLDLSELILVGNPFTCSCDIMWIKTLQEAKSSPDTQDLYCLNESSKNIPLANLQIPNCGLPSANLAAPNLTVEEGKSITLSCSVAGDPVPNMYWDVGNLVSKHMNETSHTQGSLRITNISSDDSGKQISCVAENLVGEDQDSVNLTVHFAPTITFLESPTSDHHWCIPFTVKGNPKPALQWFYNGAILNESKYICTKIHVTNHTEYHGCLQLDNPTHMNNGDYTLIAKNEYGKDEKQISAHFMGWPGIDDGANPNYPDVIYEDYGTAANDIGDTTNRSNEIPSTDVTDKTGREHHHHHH
human FcRn, sequence (P55899 24-297 limits assumed, chain 1 of 2): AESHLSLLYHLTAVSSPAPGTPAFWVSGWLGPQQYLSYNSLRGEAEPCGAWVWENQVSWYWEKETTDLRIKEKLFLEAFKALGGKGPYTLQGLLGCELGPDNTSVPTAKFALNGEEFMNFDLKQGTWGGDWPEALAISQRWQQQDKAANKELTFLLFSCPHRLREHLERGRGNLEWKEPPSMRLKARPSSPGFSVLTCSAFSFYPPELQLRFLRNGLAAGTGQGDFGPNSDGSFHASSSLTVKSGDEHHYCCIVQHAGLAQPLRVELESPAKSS
human FcRn, sequence (P61769 21-119 limits assumed, chain 2 of 2): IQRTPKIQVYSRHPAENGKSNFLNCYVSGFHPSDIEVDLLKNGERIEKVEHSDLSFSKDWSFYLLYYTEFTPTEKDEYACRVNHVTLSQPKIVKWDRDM
T4 sequence (Q63604 32-821): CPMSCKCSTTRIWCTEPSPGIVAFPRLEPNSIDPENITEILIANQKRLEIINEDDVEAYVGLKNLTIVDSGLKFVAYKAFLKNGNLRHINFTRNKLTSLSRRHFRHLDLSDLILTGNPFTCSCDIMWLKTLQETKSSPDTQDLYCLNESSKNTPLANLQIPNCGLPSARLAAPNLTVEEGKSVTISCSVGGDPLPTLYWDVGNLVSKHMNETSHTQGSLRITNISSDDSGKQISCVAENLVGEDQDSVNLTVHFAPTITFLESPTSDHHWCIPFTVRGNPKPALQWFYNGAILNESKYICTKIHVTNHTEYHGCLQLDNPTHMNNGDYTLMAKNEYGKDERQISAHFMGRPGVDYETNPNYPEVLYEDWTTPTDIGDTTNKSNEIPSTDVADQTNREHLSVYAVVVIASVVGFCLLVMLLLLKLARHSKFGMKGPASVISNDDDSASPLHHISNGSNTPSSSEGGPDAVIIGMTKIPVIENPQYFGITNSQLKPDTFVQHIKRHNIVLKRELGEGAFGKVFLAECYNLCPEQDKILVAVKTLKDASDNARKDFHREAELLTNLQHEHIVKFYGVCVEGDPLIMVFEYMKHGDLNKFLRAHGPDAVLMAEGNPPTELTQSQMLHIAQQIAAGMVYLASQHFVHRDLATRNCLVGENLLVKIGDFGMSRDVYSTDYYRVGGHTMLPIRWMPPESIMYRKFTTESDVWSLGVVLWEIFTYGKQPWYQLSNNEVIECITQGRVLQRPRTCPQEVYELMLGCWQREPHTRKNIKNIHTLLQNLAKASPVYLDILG
T5 sequence (P15209 32-821): as the sequence (Q63604 32-821) above, with M3T, T9S, T10A, I32V, K63R, G84S, T153M, I185L, T394S, N770S counted along it
TrkB D1-D3 domain variant (C32-L196), sequence (Q16620 32-196 limits assumed, stated change not applied): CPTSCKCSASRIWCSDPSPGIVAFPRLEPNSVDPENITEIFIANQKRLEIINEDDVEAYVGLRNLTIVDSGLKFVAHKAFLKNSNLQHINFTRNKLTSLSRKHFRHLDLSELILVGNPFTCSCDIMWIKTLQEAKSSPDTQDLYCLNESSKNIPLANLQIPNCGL

B1: 1G11 (murine TrkB agonist monoclonal antibody) (antibody, V domains shown)
VH: QVQLQQSGDDLVKPGASVKLSCKASGYTFTSYYINWIKQRPGQGLECIGRIAPGNTYYNEIFKGKAILTVDTSSSTAYIQLSSLSSEDSGVYFCARRGYEGALDYWGQGTSVTVSS
VL: DIVLTQSPATLSVTPGDSVSLSCRASQRISNNLHWYQQKSHESPRLLIKYVSQSISGIPSRFSGSGSGTDFTLSINSVETEDFGMYFCQQSNSWPLTFGAGTKLELKR
notes: Full length murine heavy and light chains; from a hybridoma of Balb/c mice immunised with human TrkB-ECD; Not Fc-disabled; also called 1G11 mAb; murine 1G11
binding result [1]: no binding
cell survival, rat PC12 cells stably expressing human full length TrkB, EC50 [2]: 0.025 nM
neurite outgrowth, rat PC12 cells stably expressing human full length TrkB, EC50 [2]: 0.19 nM
Activation of TrkB (pTrkB, Y515), EC50, CHO-K1 cells [3]: 3.1 nM
Potentiation of BDNF-induced agonism of TrkB (pTrkB, BDNF alone = 100%) [3]: ~130%
EC50 (read off the curve), potentiation of pTrkB in the presence of 10 nM BDNF [4]: ~10 nM
binding result [5]: no binding
Kd [6]: ~42 nM
koff [6]: 0.00239 s⁻¹
kon [6]: 56600 M⁻¹ s⁻¹
binding result (rat TrkB receptor): binds
binding result (murine TrkB receptor): binds

B2: 3A3 (murine TrkB agonist monoclonal antibody) (antibody, mouse IgG1, kappa, V domains shown)
VH: QVQLQQSGAELAKPGASVKMSCKASGYTFSSYWMHWVKQRPGQGLEWIGYINPSTGYTDYNQKFKDKATLTADKSSNTAYMQLSSLTSDDSAVYYCARSRAARYWGQGTTLTVSS
VL: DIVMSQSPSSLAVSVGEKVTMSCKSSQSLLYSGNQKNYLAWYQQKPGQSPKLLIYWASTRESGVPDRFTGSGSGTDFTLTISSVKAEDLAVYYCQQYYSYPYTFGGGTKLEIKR
notes: Full length murine chains; also called 3B3; 3A3 (=3B3)
cell survival, EC50 [2]: 0.006 nM
Activation of TrkB (pTrkB), EC50 [3]: 0.2 to 0.6 nM
Potentiation of BDNF-induced agonism of TrkB (pTrkB, BDNF alone = 100%) [3]: ~160%
EC50 (read off the curve), potentiation of pTrkB in the presence of 10 nM BDNF [4]: ~0.7 nM
Kd [6]: ~7.5 nM
koff [6]: 0.000897 s⁻¹
kon [6]: 120000 M⁻¹ s⁻¹

B3: 8E5 (murine TrkB agonist monoclonal antibody) (antibody, mouse IgG1, kappa, V domains shown)
VH: EVQLVESGGDLVKPGGSLKLSCAASGFTFSTYGMSWVRQTPDKGLEWVATVSTGGTYTYYPDSVKGRFTISRDNAKNTLYLQMSSLKSEDTAMYYCARGGYSFAYWGQGTLVTVSA
VL: ENVLTQSPAIMSASPGEKVTMTCRASSSVSSSYLHWYQQKSGVSPKLWIYSTSNLASGVPARFSGSGSGTSYSLTISSVEAEDAATYYCQQYSGYPLTFGAGTKLELKR
notes: Full length murine chains
cell survival, EC50 [2]: 0.09 nM
neurite outgrowth, EC50 [2]: 1.58 nM
Activation of TrkB (pTrkB), EC50 [3]: ~15 nM
Potentiation of BDNF-induced agonism of TrkB (pTrkB, BDNF alone = 100%) [3]: ~120%
Kd [6]: ~9.8 nM
koff [6]: 0.000676 s⁻¹
kon [6]: 69000 M⁻¹ s⁻¹

B4: 5D11 (murine TrkB agonist monoclonal antibody) (antibody, mouse IgG1, kappa, V domains shown)
VH: QVHLQQSGAELVRPGTSVKVSCKASGYAFTNYLIEWIKQRPGQGLEWIGVINPGSGGTNYNDKFKGKAILTADKSSTTAYMQLSSLTSDDSAVYFCARGGNDYGDYWGQGTSVTVSS
VL: DIVLTQSPASLAVSLGQRATISCRASQSVSTSFYSYMHWYQQKPGQPPKVFIKYASNLQSGVPARFSGSGSGTDFTLNIHPVEEDDTATYYCQHSWEIPWTFGGGTKLEIKR
notes: Full length murine chains; same as 3E10; also called 3E10; 5D11 (=3E10)
Activation of TrkB (pTrkB), EC50 [3]: 1 to 2 nM
Kd [6]: ~3.3 nM
koff [6]: 0.000145 s⁻¹
kon [6]: 44100 M⁻¹ s⁻¹

B5: Humanised 1G11 (H7, Lo1) (antibody, human IgG1, kappa)
heavy: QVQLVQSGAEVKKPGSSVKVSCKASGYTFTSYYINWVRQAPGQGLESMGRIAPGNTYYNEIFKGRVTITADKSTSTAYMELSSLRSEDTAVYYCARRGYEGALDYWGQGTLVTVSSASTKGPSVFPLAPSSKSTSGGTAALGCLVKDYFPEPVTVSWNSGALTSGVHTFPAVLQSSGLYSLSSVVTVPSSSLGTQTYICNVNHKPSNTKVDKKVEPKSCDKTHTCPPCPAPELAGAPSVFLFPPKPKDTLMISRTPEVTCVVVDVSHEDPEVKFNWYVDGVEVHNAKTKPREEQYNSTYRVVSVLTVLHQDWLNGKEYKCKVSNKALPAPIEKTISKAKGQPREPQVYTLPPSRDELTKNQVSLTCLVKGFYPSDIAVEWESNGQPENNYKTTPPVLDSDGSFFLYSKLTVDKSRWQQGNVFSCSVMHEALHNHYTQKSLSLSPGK
light: EIVLTQSPATLSLSPGERATLSCRASQRISNNLHWYQQKPGQAPRLLIKYVSQSISGIPARFSGSGSGTDFTLTISSLEPEDFAVYYCQQSNSWPLTFGQGTKLEIKRTVAAPSVFIFPPSDEQLKSGTASVVCLLNNFYPREAKVQWKVDNALQSGNSQESVTEQDSKDSTYSLSSTLTLSKADYEKHKVYACEVTHQGLSSPVTKSFNRGEC
notes: Straight graft with serine at Kabat position 47 of VH; human IgG1 Fc with L235A and G237A (EU), Fc-disabled
Activation of TrkB (pTrkB), EC50, CHO-K1 cells [2]: 0.65 nM
cell survival, rat PC12 cells stably expressing human full length TrkB, EC50 [2]: 0.007 nM
neurite outgrowth, rat PC12 cells stably expressing human full length TrkB, EC50 [2]: 0.07 nM
Kd [7]: ~55 nM
Kd [8]: ~60 nM
binding result (human FcRn): binds

B6: Brain Derived Neurotrophic Factor (BDNF) (ligand, UniProt P23560 129-247, looked up)
chain: HSDPARRGELSVCDSISEWVTAADKKTAVDMSGGTVTVLEKVPVSKGQLKQYFYETKCNPMGYTKEGCRGIDKRHWNSQCRTTQSYVRALTMDSKKRIGWRFIRIDTSCVCTLTIKRGR
notes: also called BNDF
binding result (TrkB_H284-H430 ECD-6H): binds
